What was measured:
[1] = target: T1, SmPNP2 (purine nucleoside phosphorylase isoform 2) (Schistosoma mansoni, UniProt A0A0U3AGT1); experiment: ITC; crystal structure at […] Å; format: binding
T1 construct: ORF of 287 amino acids, 6His-SUMO tag cleaved
T1 sequence (A0A0U3AGT1 1-287): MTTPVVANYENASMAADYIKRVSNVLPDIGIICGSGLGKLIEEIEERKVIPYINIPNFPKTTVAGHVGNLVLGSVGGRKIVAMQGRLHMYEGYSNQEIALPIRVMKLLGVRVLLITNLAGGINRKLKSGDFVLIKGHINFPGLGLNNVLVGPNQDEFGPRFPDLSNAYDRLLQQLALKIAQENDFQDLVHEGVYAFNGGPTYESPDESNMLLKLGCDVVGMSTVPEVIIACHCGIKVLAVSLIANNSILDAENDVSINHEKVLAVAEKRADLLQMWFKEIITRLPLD

[2] = target: T1, SmPNP2 (purine nucleoside phosphorylase isoform 2); experiment: crystal structure at […] Å, ternary complex with cytosine; format: binding
[3] = target: T1, SmPNP2 (purine nucleoside phosphorylase isoform 2); experiment: crystal structure at […] Å (soaking); format: binding
purified protein = substrate: Nc1ccn([C@@H]2O[C@H](CO)[C@@H](O)[C@H]2O)c(=O)n1; experiment: purified protein; settings: active site; direct H-bonds of base with Met221 and Glu203, ribose O5 with His259 and Tyr202
[4] = substrate: Nc1ncnc2c1ncn2[C@@H]1O[C@H](CO)[C@@H](O)[C@H]1O; experiment: xanthine oxidase-coupled phosphorolysis kinetics (KM); format: biochemical, Schistosoma mansoni; settings: phosphate (co-substrate)
[5] = substrate: OC[C@H]1O[C@@H](n2cnc3c(O)ncnc32)[C@H](O)[C@@H]1O; experiment: as above; format: biochemical, Schistosoma mansoni; settings: phosphate (co-substrate)

`Nc1cc[nH]c(=O)n1` [CYT, cytosine] was tested, and the Kd [1] was 27 µM.

For `O=P(O)(O)O[C@H]1O[C@H](CO)[C@@H](O)[C@H]1O` [R1P, ribose-1-phosphate], the “crystal structure at 1.42 Å, ternary complex with cytosine” value [2] was “As expected the R1P binds in SmPNP2 in a similar way to that observed for SmPNP1–R1P complex”.

With `Nc1ncnc2c1ccn2[C@@H]1O[C@H](CO)[C@@H](O)[C@H]1O` [tubercidin] the “crystal structure at 1.95 Å (soaking)” value [3] was “three complexes were obtained: SmPNP2–tubercidin (7-deaza-adenosine), SmPNP2–hypoxanthine and SmPNP2–adenine”.

B1: SmPNP2 (purine nucleoside phosphorylase isoform 2) (Schistosoma mansoni) (protein)
chain: MTTPVVANYENASMAADYIKRVSNVLPDIGIICGSGLGKLIEEIEERKVIPYINIPNFPKTTVAGHVGNLVLGSVGGRKIVAMQGRLHMYEGYSNQEIALPIRVMKLLGVRVLLITNLAGGINRKLKSGDFVLIKGHINFPGLGLNNVLVGPNQDEFGPRFPDLSNAYDRLLQQLALKIAQENDFQDLVHEGVYAFNGGPTYESPDESNMLLKLGCDVVGMSTVPEVIIACHCGIKVLAVSLIANNSILDAENDVSINHEKVLAVAEKRADLLQMWFKEIITRLPLD
notes: ORF of 287 amino acids, 6His-SUMO tag cleaved
B1 gave a Km (purified protein) of 76.3 µM, a Vmax (purified protein) of 60 µM/min and a kcat (purified protein) of 2 s⁻¹. For the same molecule, the kcat/Km (purified protein) was 26200 M⁻¹ s⁻¹, the Km [4] was 22.3 µM and the Vmax [4] was 60 µM/min. The kcat [4] was 1.02 ± 0.02 s⁻¹, the kcat/Km [4] was 46000 ± 5200 M⁻¹ s⁻¹ and the Km [5] was 136.4 µM. It also gave a Vmax [5] of 360 µM/min, a kcat [5] of 7 ± 0.2 s⁻¹ and a kcat/Km [5] of 50600 ± 2900 M⁻¹ s⁻¹.
